# In the DeepSol protein solubility set:
# Experiment: soluble on expression in E. coli; label from the status in PepcDB or PDB records
row,Sequence,soluble on expression in E. coli
1,MSLIRIGHGFDVHAFGEDRPLIIGGVEVPYHTGFIAHSDGDVALHALTDAILGAAALGDIGKLFPDTDMQYKNADSRGLLREAFRQVQEKGYKIGNVDITIIAQAPKMRPHIDAMRAKIAEDLQCDIEQVNVKATTTEKLGFTGRQEGIACEAVALLIRQEGGSHHHHHH,soluble
2,MVNTLEGLESTRNLILKENPMRRAAELVARLSADEVTMRAAKYELIKFNRAFQNFMLVLDENIEEILMSNDNSTRIQLKKLPEFPSFSDSFMQEYEKALLNGAEKLKASTSSEKGSIPSVSFSSSISSSSAELSDARCLICLDDVISTEKTIKCNSCRRRFHLDCASQWFKEKSVCPACNRGMLDPTEFPSL,not soluble
3,MSLQLSKAAEMCYEITNSYLHIDQKSQIIASTQEAIRLTRKYLLSEIFVRWSPLNGEISFSYNGGKDCQVLLLLYLSCLWEYFFIKAQNSQFDFEFQSFPMQRLPTVFIDQEETFPTLENFVLETSERYCLSLYESQRQSGASVNMADAFRDFIKIYPETEAIVIGIRHTDPFGEALKPIQRTDSNWPDFMRLQPLLHWDLTNIWSFLLYSNEPICGLYGKGFTSIGGINNSLPNPHLRKDSNNPALHFEWEIIHAFGKDAEGERSSAINTSPISVVDKERFSKYHDNYYPGWYLVDDTLERAGRIKNEGHHHHHH,soluble
4,MDMPHSTTHDASPAPCQRCGMAGATCCTIDPTDASLCFPVSRSEWERIVDHCDKRGGFATEPNTRPFVDNLIRLFPGEAREIERLFPPHGFHLRLAVDAKGNCAFLGPEGCTLPREVRPWYCLVFPFWLQGGRIAIFTPSGCVAVREGRTVPGCLALMNFTARDVRRLAGRLRLAWGLPPLDENGETLLEHHHHHH,not soluble
5,MGHHHHHHSHKLEEAYEPNQVAISLIGEPTLYPMLPELIEEYKKRGFTTFLVTNGTNPDMLEKVKPTQLYLSLTAFDEDSHLVLNRPGKSNWERVLRSLEVMRDSGSRTVIRLTLIRGYNMDEEAIRKYSELIEMAEPDFIEAKAYMYLGYSRLRLRWGNMPEHADIVEFSRKLADSTGYEVKRESEPSRVVL,not soluble
6,MGSDKIHHHHHHVSPHSPVQLSLPVYLPDDETFNSYYPAAGNDELILSLQASAEGRANKAVYLWGPVKAGRTHLMHATCARANELNRSSFYLPLGIHASISTELLEGLEQLDLVCIDDVDAIAGHPLWEEALFDLYNRVAEHKRCALVVSASATASDAGFALPDLVSRMQWGLTYQLQPMADEEKLAALQRRAAMRGLQLPEDVGRFLLNRLARDLRTLFDVLDRLDKASLVHQRKLTIPFVKEMLRL,not soluble
7,MAHHHHHHMIFRFYSKLYKHQCAYKNILYNKYHIEKKLEYFYDSIKKNNYSTLYGIKKNDLLNIKKNSGEFLLLSDIFMIKQNNLFLLNNVRRNFYYNTNIIKGIYNDSLFYYDKKYFSGRSGGLKRKKKRKEERIVNTGSAKRLEFFYPKKKRRQRIGLIQNSRKNIVYDNIFKRFLVYHYKQGIQVFRSFSCKKKRNFEAARNKAIILSNQYNKRFNKHNMNDQQRKDTKNIPLNVMDSNLIAKYNNELIKQIKIIPDKNKSGYRGVFYEPSYHAYICIYNEAGVRKFQIFKIQNNDYLEAYHLALMCRRYKLFKNYQFVFQRNRIRSGRIPLK,not soluble
8,MSHAVARLRAERLARSNKPFIARGSRAERCPDCRVIATHCLCAWKPRVQADAGVCLLMHDTEPLKPTNTGWLIADLIEDTWAFGWLRTAVDERLLALLDDPRWQPYIVFPGEFVAQERVVSEVVREPGKRPLFILLDATWTEARKMFRKSPYLDRFPVLSLQAEQMSRYRLRRSKRDDHFCTAEVAAMCLDLAGDGQASQALDAYLDVFSLHYLSGKRRLPLDEQDDTHQRLHTFLLEHHHHHH,soluble
9,MGSDKIHHHHHHFDLEPSSSVPTDKVYKTADDFNVAVIGCYSKLQGQVSYFTECCEYRSDNLSLSAPTAGTQDRYDIDQFADKASNGILESAWANFNNGVYRCNLVLDKIDAADFDATLKKQYKGEALFVRALTYFNMYRLWGGIPMTDKVVTVAEALKIGRSSEQQVFDFLTGDLNQVINENMLPSSYTGTDTGRATSGAAMALLGKIYLTFHKWTEARNVLSQLIGRYSLMPTPDKVFDVDNKMNDEIIFAVRFNKDVEGEGHGYWFSIINLTDDTNQTKALKECYKDGDKRKDLITYVKVEDKVCVMNKFKDLKSATYNTVGNDQIILRYADVLLMYAEALNEISYSNSQTSDAMVALNAVHTRAGLSPVQITELADQDSFRKAIMLERQQEFPYEGHRWFDLVRMGGAKEAMKAEGHTIQDFQFLYPIPKTELERINNTELLWQNPGY,not soluble
10,MGSDKIHHHHHHMNDLLKVIHNRASIRKFTGEHIPESDMEQIMSAAQSVPSINNYQPVTYVEITDQSVKDQAADLVNMPYVASSDRFFVILADYHKLLVGFEGKEREIAQTNLSAYNIAEGAALSAGVSAYAAIIAAESLGYGGVTMAGPVRAFQIYENYLDLPEMTKVVFTLALGVPDGHPGVKPKLPLSTFWQKDSYDTNVIDQGIADYNKTMRSYYESRNIDENWTEHNKKALTKAKDTTALTEYAKRKGFNLK,not soluble
11,MGSDKIHHHHHHMNRRRIALLLPRLGRYGGVEQFAWHLAEALAQRGHEVDFICARKEGEAPAGVRPVVVGRKGGLKVLKALHYLVQAERMRRRGDYDLTVSFGKTWEQDILRVGGGPLSTFWQLSGEAWPKGPRRTLKCLTRHLSPYNWLTHIIERRQYDGHCKIICVSDAVRGWTLQAFPSLAATPPEVIYNRPQLERFTPAPDTGRAACRERFSIPAGHVAIGTASSNFILKGVGHLIHALSLLPPHFMLLVAGGRNPGPFMDVARKLGVSDRVRFLGRVDDMPAFYNAIDVFALNTFYDACSNAVLEALACGTPALSTTRNGSSRFLPEAWVTDAPDDPADLAARLAALASEERTEGFAWPEDVKAGIPAWVERIEREMESGIRRG,not soluble
12,MFDVDIKFGDVYVRNIEEKDIGELKEILKDKKFYLNDEELKEIFLEYYMSECEFFTKILKKGKFVGVFRGRIEFKSSNMAWISYFYVDERYSSYKDSQDILMNILEYFSESFGVTDFITGVTNSEKDMIELWENNDFKTVRINKEFYSDRGYKEDLVIMKKYSAI,not soluble
13,MLESVVAYGIIAGARAITGLRSLWLGTTPIPKQRIYYANHSSHGDFVLLWASLPPEVRRRTRPVAGADYWNKAGLRSYVINKVFNGVLVDRQRSEANANPLEPLDRALDGGDSLIIFPEGTRNLDDEVKLLPFKSGIYHLSLAHPDVELVPVWLANLNRVMPKGRMLPLPLLCTLSFGKPLVATAEEGKEAFLERARMALLDLAPEEEA,not soluble
14,AIAGTHSGHERNGESARGGALQRLERRLAAAWAEQDAYQIEQLAGMIYDRLVRSDPSAAATVLEQNAHRLAVAGKPAEAAELATRLIRHWRELEQRPFYLARLQQMVLEPLQALSGVEAARARTMVLEAVLAWKRASATVDTEEAAPAELAPVQDALVDAYVLCGEWARAQYQVVCRGGPAERDLAFIDEQLGPHLANDVERMLARTRLVLFYVLAGNLKAGRALVEEIQRKHPTAPMTNFVVILMQVLERARNVDSSKRRLLRNFCDDLKRVYHWAFSLDPELDAMLDDVLKAQGL,soluble
15,GSARDISSTNVTDLTVSPSKIEDGGKTTVKMTFDDKNGKIQNGDMIKVAWPTSGTVKIEGYSKTVPLTVKGEQVGQAVITPDGATITFNDKVEKLSDVSGFAEFEVQGRNLTQTNTSDDKVATITSGNKSTNVTVHKSEAGTSSVFYYKTGDMLPEDTTHVRWFLNINNEKSYVSKDITIKDQIQGGQQLDLSTLNINVTGTHSNYYSGQSAITDFEKAFPGSKITVDNTKNTIDVTIPQGYGSYNSFSINYKTKITNEQQKEFVNNSQAWYQEHGKEEVNGKSFNHTVHNINANAGIEGTVK,soluble
16,MGSDKIHHHHHHMAVGKNNNKMGKKGGKKKAVDPFSRKEWYDIKAPNMFNTRQVGKTLINRTQGTKIASEGLKGRVFEVSLGDLNNSEADFRKFKLIAEDVQGKNVLTNFHAMSMTHDKLCSIVKKWHTLIEANTAVKTTDGYTLRVFVIAFTKKSVNQVKKTSYTKTSKIRKIRSEMIGCIEKEVTGCDLKEVVSKLIPDSIGKDIEKTCSKLYPLQEVYIRKVKIIKRPKVDLGRLHDLHGDSITVGADGEKVDRPDDYEPPVQQEV,not soluble
